This is an account of results in patent publication US20210155689A1 (SHANGHAI PHARMAEXPLORER, published 2021).

Experiment [1] concerns the target human LAG-3 protein with hFc tag (hLAG-3-hFc protein) (human) (UniProt P18627). Kind of experiment: ELISA, hLAG-3-hFc coated 1 ug/ml; 0.0000 ug/mL.
The target is the same in experiment [2]. Kind of experiment: ELISA, hLAG-3-hFc coated 1 ug/ml; 0.0019 ug/mL.
The target is the same in experiment [3]. Kind of experiment: ELISA, hLAG-3-hFc coated 1 ug/ml; 0.0096 ug/mL.
For experiment [4] the target is unchanged. Kind of experiment: ELISA, hLAG-3-hFc coated 1 ug/ml; 0.0480 ug/mL. For orientation: In an ELISA, binding on a coated surface is turned into a signal by an enzyme label.
For experiment [5] the target is unchanged. Kind of experiment: ELISA, hLAG-3-hFc coated 1 ug/ml; 0.2400 ug/mL.
Experiment [6] shares this target. Kind of experiment: ELISA, hLAG-3-hFc coated 1 ug/ml; 1.2000 ug/mL.
The target is the same in experiment [7]. Kind of experiment: ELISA, hLAG-3-hFc coated 1 ug/ml; 6.0000 ug/mL.
Experiment [8] shares this target. Kind of experiment: ELISA, hLAG-3-hFc coated 1 ug/ml; 30.0000 ug/mL.
The target of experiment [9] is MHC II on Raji cells. Kind of experiment: FACS, Raji cells; 0 ug/ml. In general terms: A flow cytometer gives signals particle by particle.
Experiment [10] has as its target MHC II on Raji cells. Kind of experiment: FACS, Raji cells; 0.1 ug/ml.
For experiment [11], the target named is MHC II on Raji cells. Kind of experiment: FACS, Raji cells; 0.3 ug/ml.
Experiment [12] has as its target MHC II on Raji cells. Kind of experiment: FACS, Raji cells; 0.8 ug/ml.
Experiment [13] concerns the target MHC II on Raji cells. Kind of experiment: FACS, Raji cells; 2.5 ug/ml.
The target of experiment [14] is MHC II on Raji cells. Kind of experiment: FACS, Raji cells; 200 ug/ml.
The target of experiment [15] is MHC II on Raji cells. Kind of experiment: FACS, Raji cells; 7.4 ug/ml.
Experiment [16] addresses MHC II on Raji cells. Kind of experiment: FACS, Raji cells; 22.2 ug/ml.
For experiment [17], the target named is MHC II on Raji cells. Kind of experiment: FACS, Raji cells; 66.7 ug/ml.
The target in experiment [18] is human LAG-3 protein (full length, on cells) (human) (UniProt P18627). Kind of experiment: cell-based or functional assay.
In experiment [19] the target is human LAG-3 protein with hFc tag (hLAG-3-hFc protein) (human) (UniProt P18627). Kind of experiment: ELISA, hLAG-3-hFc coated; 0.0000 nM.
The target is the same in experiment [20]. Kind of experiment: ELISA, hLAG-3-hFc coated; 0.0001 nM.
Experiment [21] shares this target. Kind of experiment: ELISA, hLAG-3-hFc coated; 0.0007 nM.
For experiment [22] the target is unchanged. Kind of experiment: ELISA, hLAG-3-hFc coated; 0.0067 nM.
Experiment [23] shares this target. Kind of experiment: ELISA, hLAG-3-hFc coated; 0.0667 nM.
Experiment [24] has the same target. Kind of experiment: ELISA, hLAG-3-hFc coated; 0.6667 nM.
Experiment [25] has the same target. Kind of experiment: ELISA, hLAG-3-hFc coated; 6.6667 nM.
The target in experiment [26] is hFc tagged monkey LAG-3 protein (cLAG-3-hFc protein) (monkey; human). Kind of experiment: ELISA, cLAG-3-hFc coated; 0.0000 nM.
For experiment [27] the target is unchanged. Kind of experiment: ELISA, cLAG-3-hFc coated; 0.0001 nM.
Experiment [28] has the same target. Kind of experiment: ELISA, cLAG-3-hFc coated; 0.0007 nM.
The target is the same in experiment [29]. Kind of experiment: ELISA, cLAG-3-hFc coated; 0.0067 nM.
Experiment [30] has the same target. Kind of experiment: ELISA, cLAG-3-hFc coated; 0.0667 nM.
The target is the same in experiment [31]. Kind of experiment: ELISA, cLAG-3-hFc coated; 0.6667 nM.
For experiment [32] the target is unchanged. Kind of experiment: ELISA, cLAG-3-hFc coated; 6.6667 nM.
The target in experiment [33] is mouse LAG-3 protein with hFc tag (mLAG-3-hFc protein) (mouse; human) (UniProt Q61790). Kind of experiment: ELISA, mLAG-3-hFc coated; 0.0001 nM.
The target is the same in experiment [34]. Kind of experiment: ELISA, mLAG-3-hFc coated; 0.0007 nM.
Experiment [35] has the same target. Kind of experiment: ELISA, mLAG-3-hFc coated; 0.0067 nM.
Experiment [36] has the same target. Kind of experiment: ELISA, mLAG-3-hFc coated; 0.0667 nM.
Experiment [37] shares this target. Kind of experiment: ELISA, mLAG-3-hFc coated; 0.6667 nM.
For experiment [38] the target is unchanged. Kind of experiment: ELISA, mLAG-3-hFc coated; 6.6667 nM.
Experiment [39] has as its target human LAG-3 protein with hFc tag (hLAG-3-hFc protein) (human) (UniProt P18627). Kind of experiment: ELISA, hLAG-3-hFc coated; 66.6670 nM.
The target in experiment [40] is hFc tagged monkey LAG-3 protein (cLAG-3-hFc protein) (monkey; human). Kind of experiment: ELISA, cLAG-3-hFc coated; 66.6670 nM.
For experiment [41], the target named is mouse LAG-3 protein with hFc tag (mLAG-3-hFc protein) (mouse; human) (UniProt Q61790). Kind of experiment: ELISA, mLAG-3-hFc coated; 66.6670 nM.
In experiment [42] the target is human LAG-3 protein (full length, on cells) (human) (UniProt P18627). Kind of experiment: FACS on HEK293-hLAG-3 cells, antibody 8 nM.
For experiment [43] the target is unchanged. Kind of experiment: FACS on HEK293-hLAG-3 cells, antibody 1.6 nM.
For experiment [44] the target is unchanged. Kind of experiment: FACS on HEK293-hLAG-3 cells, antibody 0.32 nM.
The target is the same in experiment [45]. Kind of experiment: FACS on HEK293-hLAG-3 cells, antibody 0.013 nM.
For experiment [46] the target is unchanged. Kind of experiment: FACS on HEK293-hLAG-3 cells, antibody 0.064 nM.
Experiment [47] shares this target. Kind of experiment: FACS on HEK293-hLAG-3 cells, antibody 0 nM (background).
Experiment [48] concerns the target human LAG-3-hFc protein (human) (UniProt P18627). Kind of experiment: competition FACS: inhibition of LAG-3-hFc binding to MHC II on Raji cells, antibody 0.000 nM.
Experiment [49] shares this target. Kind of experiment: competition FACS: inhibition of LAG-3-hFc binding to MHC II on Raji cells, antibody 0.274 nM.
For experiment [50] the target is unchanged. Kind of experiment: competition FACS: inhibition of LAG-3-hFc binding to MHC II on Raji cells, antibody 0.823 nM.
The target is the same in experiment [51]. Kind of experiment: competition FACS: inhibition of LAG-3-hFc binding to MHC II on Raji cells, antibody 2.469 nM.
Experiment [52] shares this target. Kind of experiment: competition FACS: inhibition of LAG-3-hFc binding to MHC II on Raji cells, antibody 7.407 nM.
Experiment [53] shares this target. Kind of experiment: competition FACS: inhibition of LAG-3-hFc binding to MHC II on Raji cells, antibody 22.222 nM.
The target is the same in experiment [54]. Kind of experiment: competition FACS: inhibition of LAG-3-hFc binding to MHC II on Raji cells, antibody 66.667 nM.
For experiment [55] the target is unchanged. Kind of experiment: competition FACS: inhibition of LAG-3-hFc binding to MHC II on Raji cells, antibody 200.000 nM.

Values joined by “and” are separate entries in the source; they are usually repeats but may differ in a detail not shown here. Equal entries are not always repeated.

mouse LAG-3 protein with hFc tag (mLAG-3-hFc protein) (mouse; human), sequence (Q61790 24-442): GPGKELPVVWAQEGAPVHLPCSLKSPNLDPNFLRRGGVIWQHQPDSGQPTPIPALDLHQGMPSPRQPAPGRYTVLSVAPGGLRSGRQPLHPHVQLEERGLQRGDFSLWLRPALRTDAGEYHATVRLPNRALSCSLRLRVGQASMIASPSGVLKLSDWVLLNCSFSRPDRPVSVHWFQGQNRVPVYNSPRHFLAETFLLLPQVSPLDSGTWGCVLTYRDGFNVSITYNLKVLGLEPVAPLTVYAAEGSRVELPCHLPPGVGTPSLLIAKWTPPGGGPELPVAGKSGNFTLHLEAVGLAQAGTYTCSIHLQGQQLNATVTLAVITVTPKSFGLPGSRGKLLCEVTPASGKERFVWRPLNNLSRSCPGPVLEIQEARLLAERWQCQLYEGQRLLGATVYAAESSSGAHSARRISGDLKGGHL
human LAG-3 protein (full length, on cells) (human), sequence (P18627 23-525 limits assumed): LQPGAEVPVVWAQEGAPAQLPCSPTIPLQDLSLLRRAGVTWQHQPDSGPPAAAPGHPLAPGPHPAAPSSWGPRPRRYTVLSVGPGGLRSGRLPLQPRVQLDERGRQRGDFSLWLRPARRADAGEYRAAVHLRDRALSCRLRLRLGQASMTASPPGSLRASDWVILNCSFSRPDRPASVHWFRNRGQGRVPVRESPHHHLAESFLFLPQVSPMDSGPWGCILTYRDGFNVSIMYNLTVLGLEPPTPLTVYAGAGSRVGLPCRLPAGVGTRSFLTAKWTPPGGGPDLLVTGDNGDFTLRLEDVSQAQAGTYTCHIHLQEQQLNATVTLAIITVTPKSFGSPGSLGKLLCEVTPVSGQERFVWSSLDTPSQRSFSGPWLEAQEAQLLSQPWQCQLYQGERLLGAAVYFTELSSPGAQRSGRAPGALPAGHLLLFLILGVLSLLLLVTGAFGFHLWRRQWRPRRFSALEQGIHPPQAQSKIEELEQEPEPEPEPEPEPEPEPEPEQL
human LAG-3 protein with hFc tag (hLAG-3-hFc protein) (human), sequence (P18627 23-450): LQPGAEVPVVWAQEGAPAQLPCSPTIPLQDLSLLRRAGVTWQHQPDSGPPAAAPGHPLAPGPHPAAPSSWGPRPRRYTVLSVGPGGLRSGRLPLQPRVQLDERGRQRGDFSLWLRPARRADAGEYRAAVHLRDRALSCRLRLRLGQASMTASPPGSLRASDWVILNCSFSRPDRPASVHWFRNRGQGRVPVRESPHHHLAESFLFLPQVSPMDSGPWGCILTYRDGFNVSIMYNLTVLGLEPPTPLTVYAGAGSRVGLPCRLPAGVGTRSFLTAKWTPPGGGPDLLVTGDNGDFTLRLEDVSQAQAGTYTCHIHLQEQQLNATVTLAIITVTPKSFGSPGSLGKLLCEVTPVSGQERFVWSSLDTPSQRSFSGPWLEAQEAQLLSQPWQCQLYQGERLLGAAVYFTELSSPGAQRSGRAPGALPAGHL
human LAG-3-hFc protein (human), sequence (P18627 23-450): as above
hFc tagged monkey LAG-3 protein (cLAG-3-hFc protein) (monkey; human), sequence (chain, as listed by the source): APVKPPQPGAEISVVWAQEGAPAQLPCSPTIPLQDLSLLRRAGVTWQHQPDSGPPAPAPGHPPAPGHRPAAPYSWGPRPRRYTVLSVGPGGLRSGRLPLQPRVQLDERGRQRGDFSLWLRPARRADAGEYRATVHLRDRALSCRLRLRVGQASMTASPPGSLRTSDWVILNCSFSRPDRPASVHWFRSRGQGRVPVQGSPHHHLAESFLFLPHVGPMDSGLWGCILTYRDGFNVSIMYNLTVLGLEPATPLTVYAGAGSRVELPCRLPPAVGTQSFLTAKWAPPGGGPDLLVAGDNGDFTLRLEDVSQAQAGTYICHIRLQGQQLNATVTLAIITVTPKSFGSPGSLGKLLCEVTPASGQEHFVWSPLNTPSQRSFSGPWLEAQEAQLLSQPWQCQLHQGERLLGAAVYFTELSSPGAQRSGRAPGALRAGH

Regarding Negative protein (control of Table 2), the OD450 was 0.06 OD450 in [1]; 0.06 OD450 in [2]; 0.06 OD450 in experiment [3]; 0.06 OD450 in experiment [4]; 0.07 OD450 and 0.06 OD450 in experiment [5]; 0.07 OD450 and 0.06 OD450 in [6]. Besides, the OD450 in [7] was 0.09 OD450; in experiment [8] it was 0.16 OD450 and 0.14 OD450.

As for hFc (control protein of Table 1), the Mean fluorescence value in experiment [9] came out at 13 MFI; in experiment [10] it was 13 MFI; in experiment [11], 11 MFI; in experiment [12] it was 12 MFI; in experiment [13] it was 14 MFI; in experiment [14], 21 MFI. Moreover, the Mean fluorescence value amounted to 18 MFI in experiment [15], 20 MFI in experiment [16] and 28 MFI in [17].

Turning to hIgG control (human IgG) (antibody), in experiment [18], the IL-2 production, pg/ml; antibody 0.0032 ug/ml, N = 1 came to 144 pg/mL. The IL-2 production, pg/ml; antibody 0.0032 ug/ml, N = 2 in [18] turned out to be 123 pg/mL. The IL-2 production, pg/ml; antibody 0.016 ug/ml, N = 1 in [18] worked out at 141 pg/mL. In experiment [18], the IL-2 production, pg/ml; antibody 0.016 ug/ml, N = 2 is 143 pg/mL. The substance further showed an IL-2 production, pg/ml; antibody 0.08 ug/ml, N = 1 in experiment [18] of 157 pg/mL. This substance also had an IL-2 production, pg/ml; antibody 0.08 ug/ml, N = 2 in experiment [18] of 145 pg/mL. In experiment [18], the IL-2 production, pg/ml; antibody 0.4 ug/ml, N = 1 came out at 159 pg/mL. Further, the IL-2 production, pg/ml; antibody 0.4 ug/ml, N = 2 in experiment [18] amounted to 179 pg/mL. This substance registered an IL-2 production, pg/ml; antibody 2 ug/ml, N = 1 in [18] of 164 pg/mL. In addition, the IL-2 production, pg/ml; antibody 2 ug/ml, N = 2 in experiment [18] turned out to be 162 pg/mL. The substance also registered an IL-2 production, pg/ml; antibody 10 ug/ml, N = 1 in experiment [18] of 142 pg/mL. In addition, in experiment [18], the IL-2 production, pg/ml; antibody 10 ug/ml, N = 2 worked out at 168 pg/mL. Also, the OD450 in [19] was found to be 0.11 OD450; in experiment [20], 0.1 OD450; in [21], 0.1 OD450; in [22] it was 0.13 OD450; in experiment [23], 0.11 OD450; in [24], 0.14 OD450. In addition, the OD450 came to 0.29 OD450 in experiment [25]; 0.13 OD450 in experiment [26]; 0.14 OD450 in experiment [27]; 0.13 OD450 in experiment [28]; 0.19 OD450 in experiment [29]; 0.14 OD450 in experiment [30]. For the same substance, the OD450 was 0.18 OD450 in experiment [31]; 0.29 OD450 in experiment [32]; 0.08 OD450 in [33]; 0.07 OD450 in experiment [34]; 0.08 OD450 in experiment [35]; 0.08 OD450 in [36]. Further, the OD450 amounted to 0.09 OD450 in experiment [37]; 0.18 OD450 in experiment [38]; 1.17 OD450 in [39]; 1.16 OD450 in experiment [40]; 0.56 OD450 in experiment [41]. For the same substance, the Mean fluorescence intensity in experiment [42], in experiment [43], in experiment [44], in [45], in experiment [46] and in experiment [47] was 3 MFI throughout. For the same substance, the Inhibition rate (%) in experiment [48] was found to be 0%; in experiment [49], 0%; in experiment [50] it was 2%; in experiment [51], 3%; in experiment [52], 1%; in [53], 0%. Moreover, the Inhibition rate (%) in experiment [54] is 4%; in experiment [55], 1%.
